Source: PMC12589613

Biological target: MDA5ΔN (residues 287–1025) (human) (UniProt Q9BYX4)
Sequence (Q9BYX4 287-1025, stated change not applied): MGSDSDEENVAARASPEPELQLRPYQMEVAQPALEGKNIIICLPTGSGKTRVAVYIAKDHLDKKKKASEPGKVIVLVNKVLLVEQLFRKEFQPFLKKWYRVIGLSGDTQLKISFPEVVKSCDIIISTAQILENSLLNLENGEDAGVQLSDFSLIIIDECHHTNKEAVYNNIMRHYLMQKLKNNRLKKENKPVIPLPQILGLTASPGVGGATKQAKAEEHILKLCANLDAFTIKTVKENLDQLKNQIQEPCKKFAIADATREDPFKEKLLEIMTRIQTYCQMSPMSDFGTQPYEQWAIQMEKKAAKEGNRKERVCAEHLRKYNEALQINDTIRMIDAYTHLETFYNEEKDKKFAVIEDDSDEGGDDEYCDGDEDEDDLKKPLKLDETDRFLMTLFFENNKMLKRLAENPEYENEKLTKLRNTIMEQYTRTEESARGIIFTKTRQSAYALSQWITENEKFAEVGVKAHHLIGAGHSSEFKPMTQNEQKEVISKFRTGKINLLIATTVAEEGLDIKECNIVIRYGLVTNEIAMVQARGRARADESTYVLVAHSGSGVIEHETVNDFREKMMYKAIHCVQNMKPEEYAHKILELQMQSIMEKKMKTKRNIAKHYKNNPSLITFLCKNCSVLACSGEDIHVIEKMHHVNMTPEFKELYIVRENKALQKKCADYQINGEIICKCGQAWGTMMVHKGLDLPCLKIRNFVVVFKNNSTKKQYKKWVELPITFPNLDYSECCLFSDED

B1: LGP2(E116A, E117A, D603A) (natural protein)
chain: MELRSYQWEVIMPALEGKNIIIWLPTGAGKTRAAAYVAKRHLETVDGAKVVVLVNRVHLVTQHGEEFRRMLDGRWTVTTLSGDMGPRAGFGHLARCHDLLICTAELLQMALTSPEAAEHVELTVFSLIVVDECHHTHKDTVYNVIMSQYLELKLQRAQPLPQVLGLTASPGTGGASKLDGAINHVLQLCANLDTWCIMSPQNCCPQLQEHSQQPCKQYNLCHRRSQDPFGDLLKKLMDQIHDHLEMPELSRKFGTQMYEQQVVKLSEAAALAGLQEQRVYALHLRRYNDALLIHDTVRAVDALAALQDFYHREHVTKTQILCAERRLLALFDDRKNELAHLATHGPENPKLEMLEKILQRQFSSSNSPRGIIFTRTRQSAHSLLLWLQQQQGLQTVDIRAQLLIGAGNSSQSTHMTQRDQQEVIQKFQDGTLNLLVATSVAEEGLDIPHCNVVVRYGLLTNEISMVQARGRARADQSVYAFVATEGSRELKRELINEALETLMEQAVAAVQKMDQAEYQAKIRDLQQAALTKRAAQAAQRENQRQQFPVEHVQLLCINCMVAVGHGSDLRKVEGTHHVNVNPNFSNYYNVSRDPVVINKVFKAWKPGGVISCRNCGEVWGLQMIYKSVKLPVLKVRSMLLETPQGRIQAKKWSRVPFSVPDFDFLQHCAENLSDLSLD
Q: Which proportion of MDA5ΔN translocation events that were stopped (immobile) on 11.6-kb dsRNA with LGP2(intermut), smTIRF does the source give for B1 here?
A: Its proportion of MDA5ΔN translocation events that were stopped (immobile) on 11.6-kb dsRNA with LGP2(intermut), smTIRF is 23%.
